Assay results from article PMC6335423, “Recurrent activating mutations of PPARγ associated with luminal bladder tumors” (Nature Communications, 2019).
Ends that are not written are not given here.

Tests used:
[1] = target: T1, PPARγ ligand-binding domain, wild type, His-hPPARγ (231–505) (human, UniProt P37231-1 231-505); test: native MS; native electrospray MS, 5 µM protein in 200 mM ammonium acetate pH 6.8; GW1929 and coactivator peptide added; details: both partners purified
T1 construct: Cloned in pET15b; also called PPARγ LBD WT; PPARγ WT; source: E. coli BL21 DE3, purified (Ni-NTA, size exclusion on Superdex 200)
T1 sequence (looked up): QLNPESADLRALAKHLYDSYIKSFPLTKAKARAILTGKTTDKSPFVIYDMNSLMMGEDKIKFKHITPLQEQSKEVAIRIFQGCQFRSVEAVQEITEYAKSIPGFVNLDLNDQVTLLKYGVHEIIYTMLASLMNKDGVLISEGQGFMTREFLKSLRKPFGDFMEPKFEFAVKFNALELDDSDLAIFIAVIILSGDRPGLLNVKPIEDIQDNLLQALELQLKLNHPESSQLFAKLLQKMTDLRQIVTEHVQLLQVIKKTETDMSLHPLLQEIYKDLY

[2] = target: T1, PPARγ ligand-binding domain, wild type, …; test: MST; no ligand; unlabeled PPARγ LBD (100 µM to 2 nM) titrated into 150 nM fluorescent PGC1α peptide; 20 mM Tris pH 8.0, 200 mM NaCl, 1 mM TCEP, 0.05% Tween 20, 25 °C; apparent Kd; details: both partners purified
[3] = target: T2, PPARγ ligand-binding domain, wild type, His-hPPARγ (231–505) (human, UniProt P37231-1 231-505); test: MST; with rosiglitazone
T2 chain: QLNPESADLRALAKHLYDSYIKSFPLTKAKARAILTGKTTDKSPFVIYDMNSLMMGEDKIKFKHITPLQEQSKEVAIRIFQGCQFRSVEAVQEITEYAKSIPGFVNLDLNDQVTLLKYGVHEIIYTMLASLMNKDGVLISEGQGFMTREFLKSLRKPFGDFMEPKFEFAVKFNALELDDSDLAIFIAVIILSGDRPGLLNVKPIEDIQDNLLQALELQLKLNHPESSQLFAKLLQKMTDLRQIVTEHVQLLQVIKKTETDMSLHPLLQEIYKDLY

[4] = target: T2, PPARγ ligand-binding domain, wild type, …; test: MST; with GW1929
[5] = target: T2, PPARγ ligand-binding domain, wild type, …; test: MST; apo (no ligand)

B1: PGC1α peptide (139-EEPSLLKKLLLAPA-152) (peptide)
peptide: EEPSLLKKLLLAPA
notes: PGC1α (PPARGC1A) residues 139-152; source: synthetic peptide (IGBMC peptide synthesis common facility)
binding result [1]: binds

B2: fluorescent PGC1α peptide (137-EAEEPSLLKKLLLAPA-152) (peptide)
peptide: EAEEPSLLKKLLLAPA
modifications: also: fluorescent label (dye and position not given here)
notes: PGC1α (PPARGC1A) residues 137-152, NR1 LXXLL motif; also called fluorescently labeled PGC1α peptide; PGC1α NR1 motif; source: bought: Thermo-Fisher (synthetic peptide)
binding result [2]: binds | Kd [3]: 1000 nM | Kd [4]: 380 nM | Kd [5]: 1700 nM
